B1: eGFP-CENP-E^2070-C (domain or fragment, Homo sapiens, UniProt Q02224 2070-2701, looked up)
chain: RQNHQVKPEKRLLSDGQQHLTESLREKCSRIKELLKRYSEMDDHYECLNRLSLDLEKEIEFQKELSMRVKANLSLPYLQTKHIEKLFTANQRCSMEFHRIMKKLKYVLSYVTKIKEEQHESINKFEMDFIDEVEKQKELLIKIQHLQQDCDVPSRELRDLKLNQNMDLHIEEILKDFSESEFPSIKTEFQQVLSNRKEMTQFLEEWLNTRFDIEKLKNGIQKENDRICQVNNFFNNRIIAIMNESTEFEERSATISKEWEQDLKSLKEKNEKLFKNYQTLKTSLASGAQVNPTTQDNKNPHVTSRATQLTTEKIRELENSLHEAKESAMHKESKIIKMQKELEVTNDIIAKLQAKVHESNKCLEKTKETIQVLQDKVALGAKPYKEEIEDLKMKLVKIDLEKMKNAKEFEKEISATKATVEYQKEVIRLLRENLRRSQQAQDTSVISEHTDPQPSNKPLTCGGGSGIVQNTKALILKSEHIRLEKEISKLKQQNEQLIKQKNELLSNNQHLSNEVKTWKERTLKREAHKQVTCENSPKSPKVTGTASKKKQITPSQCKERNLQDPVPKESPKSCFFDSRSKSLPSPHPVRYFDNSSLGLCPEVQNAGAESVDSQPGPWHASSGKDVPECKTQ
B2: BubR1 pseudokinase domain (KinD, residues 705-1050) (domain or fragment, human, UniProt O60566 705-1050, looked up)
chain: EKLELTNETSENPTQSPWCSQYRRQLLKSLPELSASAELCIEDRPMPKLEIEKEIELGNEDYCIKREYLICEDYKLFWVAPRNSAELTVIKVSSQPVPWDFYINLKLKERLNEDFDHFCSCYQYQDGCIVWHQYINCFTLQDLLQHSEYITHEITVLIIYNLLTIVEMLHKAEIVHGDLSPRCLILRNRIHDPYDCNKNNQALKIVDFSYSVDLRVQLDVFTLSGFRTVQILEGQKILANCSSPYQVDLFGIADLAHLLLFKEHLQVFWDGSFWKLSQNISELKDGELWNKFFVRILNANDEATVSVLGELAAEMNGVFDTTFQSHLNKALWKVGKLTSPGALLFQ

Legend:
[1] = target: mCherry-CENP-F^2866-2990 (Homo sapiens) (UniProt P49454); assay: AUC
[2] = target: mCherry-CENP-F^2922-2990 (Homo sapiens) (UniProt P49454); assay: AUC
[3] = target: BubR1:Bub3 complex (human, UniProt O60566 1-1050; O43684 1-328); assay: SEC
[4] = target: B1; assay: SEC

BubR1:Bub3 complex, sequence (O43684 whole entry, one chain of several): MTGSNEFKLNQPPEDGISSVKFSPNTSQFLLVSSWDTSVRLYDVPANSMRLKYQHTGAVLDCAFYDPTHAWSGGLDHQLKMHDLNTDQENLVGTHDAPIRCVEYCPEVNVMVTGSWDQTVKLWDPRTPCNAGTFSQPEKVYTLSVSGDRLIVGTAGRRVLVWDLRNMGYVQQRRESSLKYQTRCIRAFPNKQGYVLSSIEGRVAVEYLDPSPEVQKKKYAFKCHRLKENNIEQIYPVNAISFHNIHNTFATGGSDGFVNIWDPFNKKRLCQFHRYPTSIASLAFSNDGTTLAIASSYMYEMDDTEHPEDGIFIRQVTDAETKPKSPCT

mCherry-CENP-F^2866-2990 (from UniProt P49454 2866-2990) (domain or fragment)
stoichiometry N [1]: 2

mCherry-CENP-F^2922-2990 (from UniProt P49454 2922-2990) (domain or fragment)
stoichiometry N [2]: 2

B1
binding result [3]: binds

B2
binding result [4]: binds

Reference: publication doi:10.1101/276204 (bioRxiv, 2018)
